Experimental data as given in patent US6703362 (dated 2004).
Several values for one entry are separate records, joined by “and”; a condition that tells them apart may be missing. Equal entries are not always repeated. Ends that are not written are not given here. * marks the point of attachment. Dansyl = CN(C)c1cccc2c(S(=O)(=O)*)cccc12

Tests used:
C2BBe1 fixed cells [1] = experiment: competition ELISA on fixed cells; vs GST-PAX2
C2BBe1 fixed cells [2] = experiment: competition ELISA on fixed cells; vs GST-HAX42
C2BBe1 fixed cells [3] = experiment: competition ELISA on fixed cells; vs GST-P31
[4] = molecular target: C2BBe1 fixed cells (GST-P31 competition); experiment: competition ELISA on fixed cells; vs GST-P31

Binder | IC50 (C2BBe1 fixed cells [1]) | IC50 (C2BBe1 fixed cells [2]) [nM] | IC50 (C2BBe1 fixed cells [3]) [nM] | IC50 [4] [nM]
K(Dansyl)STPPSREAYSRPYSVDSDSDTNAKHSSHNRRLRTRSRPNG-NH2 [ELAN018(PAX2)] | 600 nM and 1000 nM | 230 |  | 
K(Dansyl)SARDSGPAEDGSRAVRLNGVENANTRKSSRSNPRGRRHPGG-NH2 [ELAN024(P31)] |  |  | 500 | 
K(Dansyl)SDHALGTNLRSDNAKEPGDYNCCGNGNSTGRKVFNRRRPSAIPT-NH2 (cysteine pairing not given here) [Z21(HAX42)] | 700 nM |  | 1700 | 
K(Dansyl)SARDSGPAEDGSRAVRLNGVENANTRKSSRSNPRGRRHPGG-NH2 [z024(P31)] |  |  |  | 940
K(Dansyl)SDHALGTNLRSDNAKEPGDYNCCGNGNSTGRKVFNRRRPSAIPT-NH2 (cysteine pairing not given here) [ELAN021(HAX42)] |  | 5500 |  | 
